Data from patent US20230133118A1, “COMPOSITIONS AND METHODS FOR TREATING CANCER” (Adagene AG, priority 2020, published 2023).

Biological target: human CD137 (human) (UniProt Q07011)
Assay: surface plasmon resonance (SPR); format not described

human CD137 (human), sequence (Q07011 24-186 limits assumed): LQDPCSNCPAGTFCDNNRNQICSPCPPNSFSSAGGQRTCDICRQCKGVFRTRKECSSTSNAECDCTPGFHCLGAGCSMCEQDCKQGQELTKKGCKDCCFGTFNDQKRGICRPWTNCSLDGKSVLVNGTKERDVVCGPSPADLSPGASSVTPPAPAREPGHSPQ
Urelumab (antibody), sequence (VH): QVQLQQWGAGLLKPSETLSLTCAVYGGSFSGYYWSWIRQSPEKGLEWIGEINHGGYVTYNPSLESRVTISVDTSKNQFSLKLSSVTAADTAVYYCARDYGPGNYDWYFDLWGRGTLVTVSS
Urelumab (antibody), sequence (VL): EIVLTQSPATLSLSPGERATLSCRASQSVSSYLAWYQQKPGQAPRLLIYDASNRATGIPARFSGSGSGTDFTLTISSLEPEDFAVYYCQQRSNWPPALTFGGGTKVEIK

Substance: Urelumab (antibody)
- Kd: 9.6 nM
